According to patent US20240150490A1 (MABPRO A S, published 2024):

B1: CA9hu-1 chimeric HC0LC0 (antibody, V domains shown)
VH: EVKLVESGGGLVQPGGSLRLSCATSGFTFTDYYMHWVRQPPGMALEWLAFIRNKASGYTPQYSASVKGRFTISRDVSQTILYLQMNTLRPEDSATYYCVRGGHAGSNYWYFDVWGAGTTVTVSS
VL: DIQMNQSPSSLSASLGDTITIACHVSQNINVWLSWYQQKPGNIPKLLIYQASNLHTGVPSRFTGSGSGTGFTLTISSLQPEDIATYYCQQGQSYPFTFGSGTKLEIK
notes: also called HC0LC0 (CA9hu-1); chimeric variant
B2: CA9hu-1_HC2LC3 (antibody, V domains shown)
VH: EVRLVESGGGLVQPGGSLRLSCAASGFTFTDYYMHWVRQAPGKGLEWLGFIRNKASGYTPQYSASVKGRFTISRDDSTNSLYLQMNSLKTEDTAIYYCVRGGHAGSNYWYFDVWGQGTLVTVSS
VL: DIQMTQSPSSLSASVGDRVTITCHVSQNINVWLSWYQQKPGEAPKLLIYQASNLHTGVPSRFSGSGSGTDFTLTISSLQPEDFATYYCQQGQSYPFTFGQGTKLEIK
notes: Humanized from murine VII/20; also called HC2LC3 (CA9hu-1)
B3: CA9hu-1_HC3LC2 (antibody, V domains shown)
VH: QVQLVQSGGGLVQPGRSLRLSCTASGFTFTDYYMHWVRQAPGKGLEWVGFIRNKASGYTPQYSASVKGRFTISRDDSKTIAYLQMNSLKTEDTAVYYCVRGGHAGSNYWYFDVWGQGTLVTVSS
VL: DIQMTQSPSTLSASVGDRVTITCHVSQNINVWLSWYQQKPGNAPKLLIYQASNLHTGVPSRFSGSGSGTEFTLTIGSLQPDDFVTYYCQQGQSYPFTFGQGTKVEIK
notes: Humanized from murine VII/20; also called HC3LC2 (CA9hu-1)
B4: CA9hu-1_HC3LC1 (antibody, V domains shown)
VH: QVQLVQSGGGLVQPGRSLRLSCTASGFTFTDYYMHWVRQAPGKGLEWVGFIRNKASGYTPQYSASVKGRFTISRDDSKTIAYLQMNSLKTEDTAVYYCVRGGHAGSNYWYFDVWGQGTLVTVSS
VL: DIQMTQSPSSLSASVGDRVTITCHVSQNINVWLSWYQQKPGKAPNLLIYQASNLHTGVPSRFSGSGSGTHFTLTISSLQPEDIATYYCQQGQSYPFTFGGGTKVEIK
notes: Humanized from murine VII/20; also called HC3LC1 (CA9hu-1)
B5: CA9hu-1_HC4LC1 (antibody, V domains shown)
VH: EVQLVESGGGLVQPGGSLRLSCAASGFTFTDYYMHWVRQAPGRGLEWVAFIRNKASGYTPQYSASVKGRFTISRDNAENSLYLQMNSLRAEDTAVYYCVRGGHAGSNYWYFDVWGKGTTVTVSS
VL: DIQMTQSPSSLSASVGDRVTITCHVSQNINVWLSWYQQKPGKAPNLLIYQASNLHTGVPSRFSGSGSGTHFTLTISSLQPEDIATYYCQQGQSYPFTFGGGTKVEIK
notes: Humanized from murine VII/20; also called HC4LC1 (CA9hu-1)
B6: CA9hu-1_HC4LC2 (antibody, V domains shown)
VH: EVQLVESGGGLVQPGGSLRLSCAASGFTFTDYYMHWVRQAPGRGLEWVAFIRNKASGYTPQYSASVKGRFTISRDNAENSLYLQMNSLRAEDTAVYYCVRGGHAGSNYWYFDVWGKGTTVTVSS
VL: DIQMTQSPSTLSASVGDRVTITCHVSQNINVWLSWYQQKPGNAPKLLIYQASNLHTGVPSRFSGSGSGTEFTLTIGSLQPDDFVTYYCQQGQSYPFTFGQGTKVEIK
notes: Humanized from murine VII/20; also called HC4LC2 (CA9hu-1)
B7: CA9hu-1_HC4LC5 (antibody, V domains shown)
VH: EVQLVESGGGLVQPGGSLRLSCAASGFTFTDYYMHWVRQAPGRGLEWVAFIRNKASGYTPQYSASVKGRFTISRDNAENSLYLQMNSLRAEDTAVYYCVRGGHAGSNYWYFDVWGKGTTVTVSS
VL: DIQMTQSPSSLSASVGDRVTITCHVSQNINVWLSWYQQKPGKAPKLLIYQASNLHTGVPSRFSGSGSGTDFTFTISSLQPEDIATYYCQQGQSYPFTFGQGTKLEIK
notes: Humanized from murine VII/20; also called HC4LC5 (CA9hu-1)
B8: CA9hu-1_HC3LC4 (antibody, V domains shown)
VH: QVQLVQSGGGLVQPGRSLRLSCTASGFTFTDYYMHWVRQAPGKGLEWVGFIRNKASGYTPQYSASVKGRFTISRDDSKTIAYLQMNSLKTEDTAVYYCVRGGHAGSNYWYFDVWGQGTLVTVSS
VL: DIQMTQSPSSLSASVGDRVTINCHVSQNINVWLSWYQQKPGEAPKLLIYQASNLHTGVPSRFSGSGSGTGFTLTIRSLQPEDYATYYCQQGQSYPFTFGQGTKLEIK
notes: Humanized from murine VII/20; also called HC3LC4 (CA9hu-1)
B9: CA9hu-1_HC5LC2 (antibody, V domains shown)
VH: EVQLVESGGGLVQPGGSLRLSCAASGFTFTDYYMHWVRQAPGKGLEWVGFIRNKASGYTPQYSASVKGRFTISRDDSKNSLYLQMNSLKTEDTAVYYCVRGGHAGSNYWYFDVWGQGTMVTVSS
VL: DIQMTQSPSTLSASVGDRVTITCHVSQNINVWLSWYQQKPGNAPKLLIYQASNLHTGVPSRFSGSGSGTEFTLTIGSLQPDDFVTYYCQQGQSYPFTFGQGTKVEIK
notes: Humanized from murine VII/20; also called HC5LC2 (CA9hu-1)
B10: CA9hu-1_HC5LC5 (antibody, V domains shown)
VH: EVQLVESGGGLVQPGGSLRLSCAASGFTFTDYYMHWVRQAPGKGLEWVGFIRNKASGYTPQYSASVKGRFTISRDDSKNSLYLQMNSLKTEDTAVYYCVRGGHAGSNYWYFDVWGQGTMVTVSS
VL: DIQMTQSPSSLSASVGDRVTITCHVSQNINVWLSWYQQKPGKAPKLLIYQASNLHTGVPSRFSGSGSGTDFTFTISSLQPEDIATYYCQQGQSYPFTFGQGTKLEIK
notes: Humanized from murine VII/20; also called HC5LC5 (CA9hu-1)
B11: CA9hu-1_HC3LC5 (antibody, V domains shown)
VH: QVQLVQSGGGLVQPGRSLRLSCTASGFTFTDYYMHWVRQAPGKGLEWVGFIRNKASGYTPQYSASVKGRFTISRDDSKTIAYLQMNSLKTEDTAVYYCVRGGHAGSNYWYFDVWGQGTLVTVSS
VL: DIQMTQSPSSLSASVGDRVTITCHVSQNINVWLSWYQQKPGKAPKLLIYQASNLHTGVPSRFSGSGSGTDFTFTISSLQPEDIATYYCQQGQSYPFTFGQGTKLEIK
notes: Humanized from murine VII/20; also called HC3LC5 (CA9hu-1)
B12: CA9hu-1_HC2LC5 (antibody, V domains shown)
VH: EVRLVESGGGLVQPGGSLRLSCAASGFTFTDYYMHWVRQAPGKGLEWLGFIRNKASGYTPQYSASVKGRFTISRDDSTNSLYLQMNSLKTEDTAIYYCVRGGHAGSNYWYFDVWGQGTLVTVSS
VL: DIQMTQSPSSLSASVGDRVTITCHVSQNINVWLSWYQQKPGKAPKLLIYQASNLHTGVPSRFSGSGSGTDFTFTISSLQPEDIATYYCQQGQSYPFTFGQGTKLEIK
notes: Humanized from murine VII/20; also called HC2LC5 (CA9hu-1)
B13: CA9hu-1_HC3LC3 (antibody, V domains shown)
VH: QVQLVQSGGGLVQPGRSLRLSCTASGFTFTDYYMHWVRQAPGKGLEWVGFIRNKASGYTPQYSASVKGRFTISRDDSKTIAYLQMNSLKTEDTAVYYCVRGGHAGSNYWYFDVWGQGTLVTVSS
VL: DIQMTQSPSSLSASVGDRVTITCHVSQNINVWLSWYQQKPGEAPKLLIYQASNLHTGVPSRFSGSGSGTDFTLTISSLQPEDFATYYCQQGQSYPFTFGQGTKLEIK
notes: Humanized from murine VII/20; also called HC3LC3 (CA9hu-1)
B14: CA9hu-1_HC4LC3 (antibody, V domains shown)
VH: EVQLVESGGGLVQPGGSLRLSCAASGFTFTDYYMHWVRQAPGRGLEWVAFIRNKASGYTPQYSASVKGRFTISRDNAENSLYLQMNSLRAEDTAVYYCVRGGHAGSNYWYFDVWGKGTTVTVSS
VL: DIQMTQSPSSLSASVGDRVTITCHVSQNINVWLSWYQQKPGEAPKLLIYQASNLHTGVPSRFSGSGSGTDFTLTISSLQPEDFATYYCQQGQSYPFTFGQGTKLEIK
notes: Humanized from murine VII/20; also called HC4LC3 (CA9hu-1)
B15: CA9hu-1_HC2LC4 (antibody, V domains shown)
VH: EVRLVESGGGLVQPGGSLRLSCAASGFTFTDYYMHWVRQAPGKGLEWLGFIRNKASGYTPQYSASVKGRFTISRDDSTNSLYLQMNSLKTEDTAIYYCVRGGHAGSNYWYFDVWGQGTLVTVSS
VL: DIQMTQSPSSLSASVGDRVTINCHVSQNINVWLSWYQQKPGEAPKLLIYQASNLHTGVPSRFSGSGSGTGFTLTIRSLQPEDYATYYCQQGQSYPFTFGQGTKLEIK
notes: Humanized from murine VII/20; also called HC2LC4 (CA9hu-1)
B16: CA9hu-1_HC5LC4 (antibody, V domains shown)
VH: EVQLVESGGGLVQPGGSLRLSCAASGFTFTDYYMHWVRQAPGKGLEWVGFIRNKASGYTPQYSASVKGRFTISRDDSKNSLYLQMNSLKTEDTAVYYCVRGGHAGSNYWYFDVWGQGTMVTVSS
VL: DIQMTQSPSSLSASVGDRVTINCHVSQNINVWLSWYQQKPGEAPKLLIYQASNLHTGVPSRFSGSGSGTGFTLTIRSLQPEDYATYYCQQGQSYPFTFGQGTKLEIK
notes: Humanized from murine VII/20; also called HC5LC4 (CA9hu-1)

Each binder was assayed against recombinant human CA IX (human, UniProt Q16790 38-414) (assay: SPR (Biacore 2000), antibody captured on CM5 chip, rh CA IX in flow, 25 C).
Description: In order to determinate the antigen-binding affinity of humanized variants, measurements of affinity constant (KD) for antibodies binding to CA IX were performed by SPR using a Biacore 2000 (T200 in case of CA9hu-2) instrument (GE Healthcare, Piscataway, NJ USA). Each humanized antibody variant was captured on the CM5 sensor chip and recombinant human CA IX (rh CA IX; 42 kDa; R&D Systems, Inc., Minneapolis MN, USA) protein as an antigen was added to the buffer flowing over the chip. The setting details of quantitative interaction analysis between humanized antibodies and rh CA IX were as follows: flow rate 30 μl/min; analysis temperature 25° C.; analysis buffer (10mM HEPES pH 7.4, 150 mM NaCl, […], 0.05% Tween 20). Results from SPR analysis are expressed as the equilibrium dissociation constant (KD) (Table 7).
B1 was tested, and the Kd was 22 nM. B2 was tested, and the Kd was 51 nM. For B3, the Kd was 81 nM. In the case of B4, the Kd is reported as 91 nM. For B5, the Kd was 15.2 nM. For B6, the Kd was 9.1 nM. In the case of B7, the Kd is reported as 12.3 nM. B8 showed a Kd of 97 nM. Binder B9 has a Kd of 52 nM. B10 showed a Kd of 64 nM. With B11 the Kd was 83 nM. B12 gave a Kd of 56 nM. Binder B13 has a Kd of 82 nM. Work on B14 yielded a Kd of 10.7 nM. B15 gave a Kd of 60 nM. With B16 the Kd was 54 nM.
